Source: patent publication US20120041177A1 (SPIBER TECHNOLOGIES AB C O RISING, published 2012)

T1: NT2-REP4-CT
T1 construct: Stood in the assay as a solid fiber; also called NTNT-REP-CT; HisNTNT4RepCT
T1 chain: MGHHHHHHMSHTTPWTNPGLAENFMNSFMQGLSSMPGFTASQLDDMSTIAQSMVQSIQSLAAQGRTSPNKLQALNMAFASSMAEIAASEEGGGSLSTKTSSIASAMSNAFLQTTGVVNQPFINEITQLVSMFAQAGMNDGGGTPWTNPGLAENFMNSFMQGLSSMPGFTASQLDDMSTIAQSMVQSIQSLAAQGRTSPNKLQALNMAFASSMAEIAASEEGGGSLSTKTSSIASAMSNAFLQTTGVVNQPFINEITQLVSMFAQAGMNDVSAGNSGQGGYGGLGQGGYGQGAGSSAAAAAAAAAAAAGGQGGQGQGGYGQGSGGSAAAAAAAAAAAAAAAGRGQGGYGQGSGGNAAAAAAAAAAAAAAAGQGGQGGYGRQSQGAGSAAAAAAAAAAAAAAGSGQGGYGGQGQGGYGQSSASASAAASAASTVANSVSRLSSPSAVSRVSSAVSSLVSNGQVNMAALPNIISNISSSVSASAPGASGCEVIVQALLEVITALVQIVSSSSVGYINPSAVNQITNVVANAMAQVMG

T2: NT-REP4-CT
T2 construct: Stood in the assay as a solid fiber (about 0.5 cm, about 50 ug) or as a cast film; also called NT4RepCT
T2 chain: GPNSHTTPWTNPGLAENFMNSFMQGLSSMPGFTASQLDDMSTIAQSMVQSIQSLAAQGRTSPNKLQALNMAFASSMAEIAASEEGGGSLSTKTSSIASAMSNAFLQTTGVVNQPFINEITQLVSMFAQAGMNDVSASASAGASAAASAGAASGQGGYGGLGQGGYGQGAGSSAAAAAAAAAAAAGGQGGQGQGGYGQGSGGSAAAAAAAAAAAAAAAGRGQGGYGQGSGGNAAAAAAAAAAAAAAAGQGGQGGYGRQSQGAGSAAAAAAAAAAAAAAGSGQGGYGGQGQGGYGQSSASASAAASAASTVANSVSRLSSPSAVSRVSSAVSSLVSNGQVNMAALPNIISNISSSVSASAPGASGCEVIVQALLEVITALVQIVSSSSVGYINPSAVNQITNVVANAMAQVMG

B1: NT4RepCT (as an N-terminal fusion to His6) (other)
chain: MKASHTTPWTNPGLAENFMNSFMQGLSSMPGFTASQLDDMSTIAQSMVQSIQSLAAQGRTSPNKLQALNMAFASSMAEIAASEEGGGSLSTKTSSIASAMSNAFLQTTGVVNQPFINEITQLVSMFAQAGMNDVSASASAGASAAASAGAASGQGGYGGLGQGGYGQGAGSSAAAAAAAAAAAAGGQGGQGQGGYGQGSGGSAAAAAAAAAAAAAAAGRGQGGYGQGSGGNAAAAAAAAAAAAAAAGQGGQGGYGRQSQGAGSAAAAAAAAAAAAAAGSGQGGYGGQGQGGYGQSSASASAAASAASTVANSVSRLSSPSAVSRVSSAVSSLVSNGQVNMAALPNIISNISSSVSASAPGASGCEVIVQALLEVITALVQIVSSSSVGYINPSAVNQITNVVANAMAQVMGKLAAALEHHHHHH
notes: also called NT4RepCTHis
B2: NT5Rep (other)
chain: GSGNSHTTPWTNPGLAENFMNSFMQGLSSMPGFTASQLDDMSTIAQSMVQSIQSLAAQGRTSPNKLQALNMAFASSMAEIAASEEGGGSLSTKTSSIASAMSNAFLQTTGVVNQPFINEITQLVSMFAQAGMNDVSASASAGASAAASAGAPGYSPAPSYSSGGYASSAASAAAAAGQGGPGGYGPAPNQGASSAAAAAAGSGQGPSGPYGTSYQISTQYTQTTTSQGQGYGSSSAGAAAAGAAGAGQGGYGGQGQGGYGQGAGGAAAAAAAAAAAAAAAGQGGQGGGGYGQGGQGGQGGQGQGGYGQGAGSSAAAAAAAAAAAAAAGRGQGGYGPGSGG
notes: Non-natural minispidroin derived from Euprosthenops australis MaSp1; Released from His6TrxHis6 by thrombin
B3: NTHis (other)
chain: MSHTTPWTNPGLAENFMNSFMQGLSSMPGFTASQLDDMSTIAQSMVQSIQSLAAQGRTSPNKLQALNMAFASSMAEIAASEEGGGSLSTKTSSIASAMSNAFLQTTGVVNQPFINEITQLVSMFAQAGMNDVSASASAGASAAASAGAAALEHHHHHH
notes: Soluble protein, used at 5 mg/ml; also called NT as an N-terminal fusion to His6; soluble NT
B4: NT, N-terminal fragment of major ampullate spidroin (MaSp) 1 from Euprosthenops australis (other)
chain: GSGNSHTTPWTNPGLAENFMNSFMQGLSSMPGFTASQLDDMSTIAQSMVQSIQSLAAQGRTSPNKLQALNMAFASSMAEIAASEEGGGSLSTKTSSIASAMSNAFLQTTGVVNQPFINEITQLVSMFAQAGMNDVSA
notes: Expressed as a C-terminal fusion to His6TrxHis6 and released by thrombin
B5: NT4Rep (other)
chain: GSGNSHTTPWTNPGLAENFMNSFMQGLSSMPGFTASQLDDMSTIAQSMVQSIQSLAAQGRTSPNKLQALNMAFASSMAEIAASEEGGGSLSTKTSSIASAMSNAFLQTTGVVNQPFINEITQLVSMFAQAGMNDVSASASAGASAAASAGAASGQGGYGGLGQGGYGQGAGSSAAAAAAAAAAAAGGQGGQGQGGYGQGSGGSAAAAAAAAAAAAAAAGRGQGGYGQGSGGNAAAAAAAAAAAAAAAGQGGQGGYGRQSQGAGSAAAAAAAAAAAAAAGSGQGGYGGQGQGGYGQS
notes: as for B2
B6: NT2-Brichos (other)
chain: MGHHHHHHMSHTTPWTNPGLAENFMNSFMQGLSSMPGFTASQLDDMSTIAQSMVQSIQSLAAQGRTSPNKLQALNMAFASSMAEIAASEEGGGSLSTKTSSIASAMSNAFLQTTGVVNQPFINEITQLVSMFAQAGMNDGGGTPWTNPGLAENFMNSFMQGLSSMPGFTASQLDDMSTIAQSMVQSIQSLAAQGRTSPNKLQALNMAFASSMAEIAASEEGGGSLSTKTSSIASAMSNAFLQTTGVVNQPFINEITQLVSMFAQAGMNDVSAGNSEHLVTTATFSIGSTGLVVYDYQQLLIAYKPAPGTCCYIMKIAPESIPSLEALTRKVHNFQMECSLQAKPAVPTSKLGQAEGRDAGSAPSGGDPAFLGMAVSTLCGEVPLYYI
notes: Soluble fusion protein with His6, used at 5 mg/ml; also called NT-NT-Brichos; NTNTBrichos

Assays:
[1] = target: the molecule itself; test: self-polymerisation at pH 6; macroscopic formation and SEM
Protocol: Conditions for fiber formation were essentially as described in Stark, M. et al. Biomacromolecules 8, 1695-1701, (2007). Approximately 25 μM of each protein was incubated in 20 mM Na phosphate buffer at pH 7 or 6, with or without 300 mM NaCl. At different time points, samples were applied on SEM stubs, where they were air-dried and vacuum-coated with gold and palladium. The samples were photographed with a LEO 1550 FEG microscope (Carl Zeiss, Oberkochen, Germany) using an acceleration voltage of 5 kV.
The arrows in FIG. 3 indicate when macroscopic formations first were detected, showing that at pH 7 the presence of NT delays polymerisation, while at pH 6 it accelerates polymerisation. This is independent of whether the C-terminal fragment (filled circle) is present or not (indicated by the striped circle). Moreover, the presence of NT results in more ordered polymerisation, exemplified by the scanning electron micrographs in FIG. 3, which are representative early polymers for all constructs at pH 7 (above time scale) or for NT4RepCT at pH 6 (below time scale).

[2] = target: the molecule itself; test: self-polymerisation at pH 6
NT2-REP4-CT = target: T1, NT2-REP4-CT; test: capture of soluble protein on fibers at pH 6, release at pH 7, SDS-PAGE; 300 mM NaCl decreased capture at pH 6
Protocol: (§1) Fibers (˜0.5 cm long, ˜50 ug) of NT-REP₄-CT (SEQ ID NO 20), NT₂-REP₄-CT (SEQ ID NO 23) and REP₄-CT (SEQ ID NO 2, control) were submerged in 100 μl solution of 5 mg/ml soluble NTHis (SEQ ID NO 30) or NT₂-Brichos (SEQ ID NO 32) at pH 8 for 10 minutes. The pH was decreased by addition of 400 ul sodium phosphate buffer (NaP) to pH 6 and incubated for 10 minutes to allow assembly of soluble NT to the fiber. The fibers were transferred to 500 μl of NaP at pH 6, and washed twice. Finally, the fibers were transferred to 500 μl of NaP at pH 7, and incubated 10 minutes to allow release of soluble NT. The same was done in the presence of 300 mM NaCl in all pH 6 NaP buffers. Samples from the different solutions were analysed on SDS-PAGE.

NT-REP4-CT = target: T2, NT-REP4-CT; test: as above
Protocol: as §1

[3] = target: the molecule itself; test: self-association; dynamic light scattering and turbidimetry; reversed by an increase of pH, blocked by high levels of salt
Protocol: The effect of pH and ionic strength on the hydrodynamic diameter of NT and NTΔHis6 (to exclude that pH dependent effects are caused by His at position 6) was measured at 25±0.1° C. in a Zetasizer Nano S from Malvern Instruments (Worcestershire, UK) equipped with a 633 nm HeNe laser. The buffers were filtered through nylon filters prior to use. The sample volume was 50 μl and ZEN2112 low glass cuvettes were used. The attenuation and measurement positions from the cuvette wall (4.65 mm) were kept constant for all analyses. Six scans were performed for each sample. All samples were analyzed in triplicate. The hydrodynamic diameter (dH) was calculated using the General Purpose algorithm in the Malvern software for DLS analysis, which correlates the diffusion coefficient to the hydrodynamic diameter through the Stokes-Einstein equation: […]
NT was subjected to dynamic light scattering at pH 6-7 and 0-300 mM NaCl. See also Table 3

[4] = target: the molecule itself; test: self-polymerisation at pH 6; macroscopic formation, SEM and turbidimetry

Binder | binding result (NT2-REP4-CT) | binding result (NT-REP4-CT) | also measured
B1 | – | – | binding result [1]: binds
B2 | – | – | binding result [2]: binds
B3 | binds | binds | –
B4 | – | – | binding result [3]: binds
B5 | – | – | binding result [4]: binds
B6 | binds | binds | –
